Test results from PMC3474754.

Molecular target: full-length uncleaved Reelin (FL-Reelin) (UniProt Q60841)
Assay: cross-linking; BS3 cross-linker, 30 minutes on ice, on FL- or C-cleaved Reelin in conditioned medium; anti-Reelin (G10) immunoblot

- stoichiometry N: 2
Substance: full-length uncleaved Reelin (FL-Reelin), Q60841 27-3461
